Results on 2 molecules are retold here after patent US11021533.

The target of assay [1] is all ZIKV strains tested (MR 766, Dakar 41519, Malaysia P6740, H/PF/2013, Brazil Paraiba 2015). Nature of the assay: cell-based or functional assay.
The target in assay [2] is ZIKV strain H/PF/2013 (French Polynesia, 2013) virus (Zika virus, strain H/PF/2013). Nature of the assay: cell-based or functional assay.

B1: ZIKV-117 (antibody, V domains shown)
VH: QVQLVESGGGVVRPGGSLRLSCAASGFTFKNYGIHWVRQAPGKGPEWVAFVRYDGNNKYYADSVKGRFTISRDNAKNTLSLQMNSLRVEDTAVYFCARDPETFGGFDYWGQGTLVTVSS
VL: ETVMTQSPATLSVSPGERGTLSCRASESVSSNLAWYQQKPGKAPRLLIYGASTRATGIPDRFSGSGSGTEFTLTISSLQSEDFAVYYCQQYYYSPRTFGQGTKVEVK
As to B1, the FRNT50 (focus reduction neutralization test on Vero cells) in assay [1] lay in the range of 5 to 25 ng/mL.

B2: ZIKV-88 (antibody, V domains shown)
VH: QVQLLESGGGVVQPGRSLRLSCVASGLTFSTSAMHWVRQAPGKGLEWVAVISYDGSYKFYADSVRDQFTISRDNSKTTLYLQMDGLTPEDTAVYYCARGYNDDSSGSYWYFDLWGRGTLVTVSS
VL: QSVLTQPPSVSAAPGQKVTMSCSGSSSNIGSNFVSWYQQLPGTAPKVLIFDNNQRPSGIPDRFSGSKSGTSATLAITGLQPGDEAVYHCGTWDSSLTFAVFGGGTKLTVL
B2: the FRNT50 (focus reduction neutralization test on Vero cells) in assay [2] was determined as 420 ng/mL.
